# Measured values from patent publication US8840891 (RSR, dated 2014).
# Like-named read-outs stand apart in the source and are kept apart here.
# B1: 5C9 IgG (human monoclonal autoantibody to the TSHR) (antibody, from another filing, V domains shown)
# VH: EVQLVESGGGLIQPGGSLRLSCAASGFTVSSNYMSWVRQAPGKGLEWVSVTYSGGSTSYADSVKGRFTISRDNSKNTLYLQMNSLRAEDTAVYYCARGGRYCSSISCYARSGCDYWGQGTLVTVSS
# VL: AIQMTQSPSSLSASVGDRVTITCRASQSISNYLNWYQQKPGKAPKLLIYAASSLQSGVPSRFSGSGSGTDFTLTISSLQPEDFATYYCQQSYSSPSTTFGQGTKLEIK
# Legend:
# [1] = molecular target: TSHR coated onto tubes (human) (UniProt P16473); experiment: TSHR coated tubes, competitor 125I-5C9 IgG
# [2] = molecular target: wild type human TSHR (human) (UniProt P16473); experiment: cell-based or functional assay
# [3] = molecular target: TSHR with Asp151 mutated to Arginine (human) (UniProt P16473); experiment: cell-based or functional assay
# [4] = molecular target: TSHR with Gln235 mutated to Alanine (human) (UniProt P16473); experiment: cell-based or functional assay
# [5] = molecular target: TSHR with Arg80 mutated to Alanine (human) (UniProt P16473); experiment: cell-based or functional assay
# [6] = molecular target: wild type human TSHR (human) (UniProt P16473); experiment: cell-based or functional assay; remark: listed apart in the source
# [7] = molecular target: wild type human TSHR (human) (UniProt P16473); experiment: cell-based or functional assay; remark: listed apart in the source
# [8] = molecular target: TSHR with Ile60 mutated to Alanine (human) (UniProt P16473); experiment: cell-based or functional assay
# [9] = molecular target: wild type human TSHR (thyrotropin receptor) expressed on CHO cells (human) (UniProt P16473); experiment: cell-based or functional assay
# [10] = molecular target: wild type human TSHR (thyrotropin receptor) expressed on CHO cells (human) (UniProt P16473); experiment: cell-based or functional assay; remark: listed apart in the source
# [11] = molecular target: TSHR with Phe130 mutated to Alanine expressed on CHO cells (human) (UniProt P16473); experiment: cell-based or functional assay
# [12] = molecular target: TSHR with Tyr206 mutated to Alanine expressed on CHO cells (human) (UniProt P16473); experiment: cell-based or functional assay
# [13] = molecular target: wild type human TSHR (thyrotropin receptor) expressed on CHO cells (human) (UniProt P16473); experiment: cell-based or functional assay; remark: listed apart in the source
# [14] = molecular target: TSHR with Glu61 mutated to Alanine expressed on CHO cells (human) (UniProt P16473); experiment: cell-based or functional assay
# [15] = molecular target: wild type human TSHR (thyrotropin receptor) expressed on CHO cells (human) (UniProt P16473); experiment: cell-based or functional assay; remark: listed apart in the source
molecule,measurement,setting,value
5C9 IgG (antibody),% inhib of 125I-5C9 IgG binding at 0.01 µg/mL,[1],0%
same,% inhib of 125I-5C9 IgG binding at 0.1 µg/mL,[1],10%
same,% inhib of 125I-5C9 IgG binding at 1 µg/mL,[1],27%
same,% inhib of 125I-5C9 IgG binding at 10 µg/mL,[1],42%
same,% inhib of 125I-5C9 IgG binding at 100 µg/mL,[1],65.5%
same,cyclic AMP; 5C9 0.01 µg/mL + TSH (fmol/cell well),[2],12400
same,cyclic AMP; 5C9 0.1 µg/mL + TSH (fmol/cell well),[2],6690
same,cyclic AMP; 5C9 1.0 µg/mL + TSH (fmol/cell well),[2],2750
same,cyclic AMP; 5C9 10 µg/mL + TSH (fmol/cell well),[2],1220
same,cyclic AMP; 5C9 100 µg/mL + TSH (fmol/cell well),[2],1570
same,cyclic AMP; 5C9 100 µg/mL only (fmol/cell well),[2],260
same,Mutated/wild type (%); 5C9 0.01 µg/mL + TSH,[3],148%
same,Mutated/wild type (%); 5C9 0.1 µg/mL + TSH,[3],158%
same,Mutated/wild type (%); 5C9 1.0 µg/mL + TSH,[3],94%
same,Mutated/wild type (%); 5C9 10 µg/mL + TSH,[3],132%
same,Mutated/wild type (%); 5C9 100 µg/mL + TSH,[3],148%
same,Mutated/wild type (%); 5C9 100 µg/mL only,[3],157%
same,cyclic AMP; 5C9 0.01 µg/mL + TSH (fmol/cell well),[3],18300
same,cyclic AMP; 5C9 0.1 µg/mL + TSH (fmol/cell well),[3],10600
same,cyclic AMP; 5C9 1.0 µg/mL + TSH (fmol/cell well),[3],2590
same,cyclic AMP; 5C9 10 µg/mL + TSH (fmol/cell well),[3],1610
same,cyclic AMP; 5C9 100 µg/mL + TSH (fmol/cell well),[3],2330
same,cyclic AMP; 5C9 100 µg/mL only (fmol/cell well),[3],409
same,Mutated/wild type (%); 5C9 0.01 µg/mL + TSH,[4],244%
same,Mutated/wild type (%); 5C9 0.1 µg/mL + TSH,[4],96%
same,Mutated/wild type (%); 5C9 1.0 µg/mL + TSH,[4],95%
same,Mutated/wild type (%); 5C9 10 µg/mL + TSH,[4],192%
same,Mutated/wild type (%); 5C9 100 µg/mL + TSH,[4],97%
same,Mutated/wild type (%); 5C9 100 µg/mL only,[4],215%
same,cyclic AMP; 5C9 0.01 µg/mL + TSH (fmol/cell well),[4],17500
same,cyclic AMP; 5C9 0.1 µg/mL + TSH (fmol/cell well),[4],7440
same,cyclic AMP; 5C9 1.0 µg/mL + TSH (fmol/cell well),[4],2420
same,cyclic AMP; 5C9 10 µg/mL + TSH (fmol/cell well),[4],1020
same,cyclic AMP; 5C9 100 µg/mL + TSH (fmol/cell well),[4],727
same,cyclic AMP; 5C9 100 µg/mL only (fmol/cell well),[4],256
same,Mutated/wild type (%); 5C9 0.01 µg/mL + TSH,[5],99%
same,Mutated/wild type (%); 5C9 0.1 µg/mL + TSH,[5],82%
same,Mutated/wild type (%); 5C9 1.0 µg/mL + TSH,[5],20%
same,Mutated/wild type (%); 5C9 10 µg/mL + TSH,[5],55%
same,Mutated/wild type (%); 5C9 100 µg/mL + TSH,[5],23%
same,Mutated/wild type (%); 5C9 100 µg/mL only,[5],202%
same,cyclic AMP; 5C9 0.01 µg/mL + TSH (fmol/cell well),[5],14300
same,cyclic AMP; 5C9 0.1 µg/mL + TSH (fmol/cell well),[5],9280
same,cyclic AMP; 5C9 1.0 µg/mL + TSH (fmol/cell well),[5],1360
same,cyclic AMP; 5C9 10 µg/mL + TSH (fmol/cell well),[5],1160
same,cyclic AMP; 5C9 100 µg/mL + TSH (fmol/cell well),[5],518
same,cyclic AMP; 5C9 100 µg/mL only (fmol/cell well),[5],494
same,cyclic AMP; 5C9 0.01 µg/mL + TSH (fmol/cell well),[6],14400
same,cyclic AMP; 5C9 0.1 µg/mL + TSH (fmol/cell well),[6],11300
same,cyclic AMP; 5C9 1.0 µg/mL + TSH (fmol/cell well),[6],6700
same,cyclic AMP; 5C9 10 µg/mL + TSH (fmol/cell well),[6],2110
same,cyclic AMP; 5C9 100 µg/mL + TSH (fmol/cell well),[6],2230
same,cyclic AMP; 5C9 100 µg/mL only (fmol/cell well),[6],244
same,cyclic AMP; 5C9 0.01 µg/mL + TSH (fmol/cell well),[7],8020
same,cyclic AMP; 5C9 0.1 µg/mL + TSH (fmol/cell well),[7],7100
same,cyclic AMP; 5C9 1.0 µg/mL + TSH (fmol/cell well),[7],1570
same,cyclic AMP; 5C9 10 µg/mL + TSH (fmol/cell well),[7],1770
same,cyclic AMP; 5C9 100 µg/mL + TSH (fmol/cell well),[7],1730
same,cyclic AMP; 5C9 100 µg/mL only (fmol/cell well),[7],61
same,Mutated/wild type (%); 5C9 0.01 µg/mL + TSH,[8],236%
same,Mutated/wild type (%); 5C9 0.1 µg/mL + TSH,[8],164%
same,Mutated/wild type (%); 5C9 1.0 µg/mL + TSH,[8],210%
same,Mutated/wild type (%); 5C9 10 µg/mL + TSH,[8],68%
same,Mutated/wild type (%); 5C9 100 µg/mL + TSH,[8],181%
same,Mutated/wild type (%); 5C9 100 µg/mL only,[8],426%
same,cyclic AMP; 5C9 0.01 µg/mL + TSH (fmol/cell well),[8],19000
same,cyclic AMP; 5C9 0.1 µg/mL + TSH (fmol/cell well),[8],11600
same,cyclic AMP; 5C9 1.0 µg/mL + TSH (fmol/cell well),[8],3290
same,cyclic AMP; 5C9 10 µg/mL + TSH (fmol/cell well),[8],1210
same,cyclic AMP; 5C9 100 µg/mL + TSH (fmol/cell well),[8],3130
same,cyclic AMP; 5C9 100 µg/mL only (fmol/cell well),[8],260
B1,Cyclic AMP produced; 5C9 0.01 µg/mL + TSH (fmol/cell well),[9],12600
same,Cyclic AMP produced; 5C9 0.1 µg/mL + TSH (fmol/cell well),[9],4350
same,Cyclic AMP produced; 5C9 1.0 µg/mL + TSH (fmol/cell well),[9],688
same,Cyclic AMP produced; 5C9 10 µg/mL + TSH (fmol/cell well),[9],630
same,Cyclic AMP produced; 5C9 100 µg/mL + TSH (fmol/cell well),[9],712
same,Cyclic AMP produced; 5C9 100 µg/mL only (fmol/cell well),[9],196
same,Cyclic AMP produced; 5C9 0.01 µg/mL + TSH (fmol/cell well),[10],15300
same,Cyclic AMP produced; 5C9 0.1 µg/mL + TSH (fmol/cell well),[10],2710
same,Cyclic AMP produced; 5C9 1.0 µg/mL + TSH (fmol/cell well),[10],398
same,Cyclic AMP produced; 5C9 10 µg/mL + TSH (fmol/cell well),[10],151
same,Cyclic AMP produced; 5C9 100 µg/mL + TSH (fmol/cell well),[10],240
same,Cyclic AMP produced; 5C9 100 µg/mL only (fmol/cell well),[10],334
same,Cyclic AMP produced; 5C9 0.01 µg/mL + TSH (fmol/cell well),[11],17400
same,Cyclic AMP produced; 5C9 0.1 µg/mL + TSH (fmol/cell well),[11],9020
same,Cyclic AMP produced; 5C9 1.0 µg/mL + TSH (fmol/cell well),[11],2240
same,Cyclic AMP produced; 5C9 10 µg/mL + TSH (fmol/cell well),[11],1140
same,Cyclic AMP produced; 5C9 100 µg/mL + TSH (fmol/cell well),[11],603
same,Cyclic AMP produced; 5C9 100 µg/mL only (fmol/cell well),[11],446
same,Mutated/wild type (%); 5C9 0.01 µg/mL + TSH,[11],114%
same,Mutated/wild type (%); 5C9 0.1 µg/mL + TSH,[11],332%
same,Mutated/wild type (%); 5C9 1.0 µg/mL + TSH,[11],562%
same,Mutated/wild type (%); 5C9 10 µg/mL + TSH,[11],754%
same,Mutated/wild type (%); 5C9 100 µg/mL + TSH,[11],251%
same,Mutated/wild type (%); 5C9 100 µg/mL only,[11],134%
same,Cyclic AMP produced; 5C9 0.01 µg/mL + TSH (fmol/cell well),[12],18400
same,Cyclic AMP produced; 5C9 0.1 µg/mL + TSH (fmol/cell well),[12],10800
same,Cyclic AMP produced; 5C9 1.0 µg/mL + TSH (fmol/cell well),[12],3460
same,Cyclic AMP produced; 5C9 10 µg/mL + TSH (fmol/cell well),[12],1560
same,Cyclic AMP produced; 5C9 100 µg/mL + TSH (fmol/cell well),[12],506
same,Cyclic AMP produced; 5C9 100 µg/mL only (fmol/cell well),[12],482
same,Mutated/wild type (%); 5C9 0.01 µg/mL + TSH,[12],114%
same,Mutated/wild type (%); 5C9 0.1 µg/mL + TSH,[12],174%
same,Mutated/wild type (%); 5C9 1.0 µg/mL + TSH,[12],265%
same,Mutated/wild type (%); 5C9 10 µg/mL + TSH,[12],395%
same,Mutated/wild type (%); 5C9 100 µg/mL + TSH,[12],173%
same,Mutated/wild type (%); 5C9 100 µg/mL only,[12],109%
same,Cyclic AMP produced; 5C9 0.01 µg/mL + TSH (fmol/cell well),[13],16100
same,Cyclic AMP produced; 5C9 0.1 µg/mL + TSH (fmol/cell well),[13],6220
same,Cyclic AMP produced; 5C9 1.0 µg/mL + TSH (fmol/cell well),[13],1310
same,Cyclic AMP produced; 5C9 10 µg/mL + TSH (fmol/cell well),[13],396
same,Cyclic AMP produced; 5C9 100 µg/mL + TSH (fmol/cell well),[13],292
same,Cyclic AMP produced; 5C9 100 µg/mL only (fmol/cell well),[13],444
same,Cyclic AMP produced; 5C9 0.01 µg/mL + TSH (fmol/cell well),[14],18000
same,Cyclic AMP produced; 5C9 0.1 µg/mL + TSH (fmol/cell well),[14],2110
same,Cyclic AMP produced; 5C9 1.0 µg/mL + TSH (fmol/cell well),[14],766
same,Cyclic AMP produced; 5C9 10 µg/mL + TSH (fmol/cell well),[14],346
same,Cyclic AMP produced; 5C9 100 µg/mL + TSH (fmol/cell well),[14],328
same,Cyclic AMP produced; 5C9 100 µg/mL only (fmol/cell well),[14],254
same,Mutated/wild type (%); 5C9 0.01 µg/mL + TSH,[14],131%
same,Mutated/wild type (%); 5C9 0.1 µg/mL + TSH,[14],73%
same,Mutated/wild type (%); 5C9 1.0 µg/mL + TSH,[14],143%
same,Mutated/wild type (%); 5C9 10 µg/mL + TSH,[14],136%
same,Mutated/wild type (%); 5C9 100 µg/mL + TSH,[14],162%
same,Mutated/wild type (%); 5C9 100 µg/mL only,[14],117%
same,Cyclic AMP produced; 5C9 0.01 µg/mL + TSH (fmol/cell well),[15],13800
same,Cyclic AMP produced; 5C9 0.1 µg/mL + TSH (fmol/cell well),[15],2890
same,Cyclic AMP produced; 5C9 1.0 µg/mL + TSH (fmol/cell well),[15],536
same,Cyclic AMP produced; 5C9 10 µg/mL + TSH (fmol/cell well),[15],254
same,Cyclic AMP produced; 5C9 100 µg/mL + TSH (fmol/cell well),[15],202
same,Cyclic AMP produced; 5C9 100 µg/mL only (fmol/cell well),[15],218
